Key:
Experiment in all cases: purified protein, by the assay type
Assay type in all cases: biochemical, Bacillus cereus
Details in all cases: other: 10 mM phosphate buffer, pH 7.0, 30° C, Hanes plot, mean of three independent measurements
[1] = tested on: CO/N=C(\C(=O)N[C@@H]1C(=O)N2C(C(=O)O)=C(COC(N)=O)CS[C@H]12)c1ccco1
Protocol: (§1) The enzyme kinetic parameters kcat and Km were determined from initial rates by Hanes plot. The reactions were performed in 10 mM phosphate buffer, pH 7.0 at 30° C. The reaction cuvette (one mL) contained about 5 pmol of enzyme in all reactions except 1.7 pmol of enzyme in the meropenem assay. The hydrolysis of various beta-lactam substrates was spectrophometrically recorded at a wavelength specific for each substrate.
(§2) Values for different kinetic parameters (kcat, Km and kcat/Km) that represent mean values obtained from three independent measurements are reported in Table 6.

[2] = tested on: C[C@@H](O)[C@H]1C(=O)N2C(C(=O)O)=C(S[C@@H]3CN[C@H](C(=O)N(C)C)C3)[C@H](C)[C@H]12
Protocol: as §1, §2

[3] = tested on: CO/N=C(\C(=O)N[C@@H]1C(=O)N2C(C(=O)O)=C(COC(C)=O)CS[C@H]12)c1csc(N)n1
Protocol: as §1, §2

[4] = tested on: CC1(C)S[C@@H]2[C@H](NC(=O)[C@H](N)c3ccccc3)C(=O)N2[C@H]1C(=O)O
Protocol: as §1, §2

[5] = tested on: CCN1CCN(C(=O)N[C@@H](C(=O)N[C@@H]2C(=O)N3[C@@H]2SC(C)(C)[C@@H]3C(=O)O)c2ccccc2)C(=O)C1=O
Protocol: as §1, §2

[6] = tested on: CC1(C)S[C@@H]2[C@H](NC(=O)[C@H](N)c3ccc(O)cc3)C(=O)N2[C@H]1C(=O)O
Protocol: as §1, §2

[7] = tested on: CO/N=C(\C(=O)N[C@@H]1C(=O)N2C(C(=O)O)=C(CSc3nc(=O)c(=O)[nH]n3C)CS[C@H]12)c1csc(N)n1
Protocol: as §1, §2

Substance: P2A metallo-beta-lactamase (Bacillus cereus)
- Km [1]: 27 µM
- Km [2]: 410 µM
- Km [3]: 66 µM
- Km [4]: 942 µM
- Km [5]: 372 µM
- Km [6]: 716 µM
- Km [7]: 68 µM

Reference: patent US7989192B2, “Modified beta-lactamase and method for its preparation” (IPSAT Therapies Oy, priority 2006, dated 2011)
